Data taken from publication PMC10912509.

Target: ITPKB (UniProt P27987)
Assay: co-immunoprecipitation, immunoblot
Conditions: reference: wild-type Trim25; sites S100

## Trim25 (from UniProt Q14258) Trim25 S100A
  binding against the reference: weaker
